Results published in PMC6668440, “A one-gate elevator mechanism for the human neutral amino acid transporter ASCT2” (Nature Communications, 2019).

B1: human Alanine Serine Cysteine Transporter 2 with the C467R mutation (ASCT2_(C467R)) (natural protein)
chain: MVADPPRDSKGLAAAEPTANGGLALASIEDQGAAAGGYCGSRDQVRRCLRANLLVLLTVVAVVAGVALGLGVSGAGGALALGPERLSAFVFPGELLLRLLRMIILPLVVCSLIGGAASLDPGALGRLGAWALLFFLVTTLLASALGVGLALALQPGAASAAINASVGAAGSAENAPSKEVLDSFLDLARNIFPSNLVSAAFRSYSTTYEERNITGTRVKVPVGQEVEGMNILGLVVFAIVFGVALRKLGPEGELLIRFFNSFNEATMVLVSWIMWYAPVGIMFLVAGKIVEMEDVGLLFARLGKYILCCLLGHAIHGLLVLPLIYFLFTRKNPYRFLWGIVTPLATAFGTSSSSATLPLMMKCVEENNGVAKHISRFILPIGATVNMDGAALFQCVAAVFIAQLSQQSLDFVKIITILVTATASSVGAAGIPAGGVLTLAIILEAVNLPVDHISLILAVDWLVDRSRTVLNVEGDALGAGLLQNYVDRTESRSTEPELIQVKSELPLDPLPVPTEEGNPLLKHYRGPAGDATVASEKESVM
notes: human ASCT2 (SLC1A5), codon optimised gene on the pPICZ-A plasmid, with the single point mutation C467R; residues 43-159 and 177-489 were modelled in the map; Homotrimer (172 kDa) in DDM + CHS micelles; the tag and the limits are not described here; also called SLC1A5 C467R; source: Pichia pastoris X-33, purified (DDM/CHS solubilisation, Ni2+-Sepharose, Superdex 200 SEC)
B2: human Alanine Serine Cysteine Transporter 2, wild type (ASCT2wt) (natural protein)
chain: MVADPPRDSKGLAAAEPTANGGLALASIEDQGAAAGGYCGSRDQVRRCLRANLLVLLTVVAVVAGVALGLGVSGAGGALALGPERLSAFVFPGELLLRLLRMIILPLVVCSLIGGAASLDPGALGRLGAWALLFFLVTTLLASALGVGLALALQPGAASAAINASVGAAGSAENAPSKEVLDSFLDLARNIFPSNLVSAAFRSYSTTYEERNITGTRVKVPVGQEVEGMNILGLVVFAIVFGVALRKLGPEGELLIRFFNSFNEATMVLVSWIMWYAPVGIMFLVAGKIVEMEDVGLLFARLGKYILCCLLGHAIHGLLVLPLIYFLFTRKNPYRFLWGIVTPLATAFGTSSSSATLPLMMKCVEENNGVAKHISRFILPIGATVNMDGAALFQCVAAVFIAQLSQQSLDFVKIITILVTATASSVGAAGIPAGGVLTLAIILEAVNLPVDHISLILAVDWLVDRSCTVLNVEGDALGAGLLQNYVDRTESRSTEPELIQVKSELPLDPLPVPTEEGNPLLKHYRGPAGDATVASEKESVM
notes: human ASCT2 (SLC1A5), codon optimised gene on the pPICZ-A plasmid; Only a map (6.98 Å, C3 imposed) was deposited, no model; also called SLC1A5

Target: the molecule itself
Assay: cryo-EM structure; single particle cryo-EM of the purified transporter in mixed DDM + CHS micelles (20 mM Tris-HCl pH 7.4, 300 mM NaCl); ASCT2_(C467R) with 1 mM DL-TBOA and without inhibitor, ASCT2wt without substrate; C3 symmetry imposed, classifications without symmetry also done

Protein	stoichiometry N	binding result
B1	3	
B2		binds
